Columns and labels:
[1] = molecular target: T1, gastrin-releasing peptide receptor (GRPR) (human, UniProt P30550 1-384); assay: displacement of ^125I-[Tyr^4]BBN from PC-3 cells
T1 construct: whole, on cells; also called GRP receptor

[2] = molecular target: T2, integrin αvβ3 (human, UniProt P06756 31-1048; P05106 27-788); assay: competitive binding with ^125I-c(RGDyK) on U87MG cells
T2 construct: whole, on cells; Endogenous receptor on U87MG human glioblastoma cells in the IC50 assays; also called integrin alpha v beta 3; human integrin αvβ3
T2 sequence (P06756 31-1048, chain 1 of 2): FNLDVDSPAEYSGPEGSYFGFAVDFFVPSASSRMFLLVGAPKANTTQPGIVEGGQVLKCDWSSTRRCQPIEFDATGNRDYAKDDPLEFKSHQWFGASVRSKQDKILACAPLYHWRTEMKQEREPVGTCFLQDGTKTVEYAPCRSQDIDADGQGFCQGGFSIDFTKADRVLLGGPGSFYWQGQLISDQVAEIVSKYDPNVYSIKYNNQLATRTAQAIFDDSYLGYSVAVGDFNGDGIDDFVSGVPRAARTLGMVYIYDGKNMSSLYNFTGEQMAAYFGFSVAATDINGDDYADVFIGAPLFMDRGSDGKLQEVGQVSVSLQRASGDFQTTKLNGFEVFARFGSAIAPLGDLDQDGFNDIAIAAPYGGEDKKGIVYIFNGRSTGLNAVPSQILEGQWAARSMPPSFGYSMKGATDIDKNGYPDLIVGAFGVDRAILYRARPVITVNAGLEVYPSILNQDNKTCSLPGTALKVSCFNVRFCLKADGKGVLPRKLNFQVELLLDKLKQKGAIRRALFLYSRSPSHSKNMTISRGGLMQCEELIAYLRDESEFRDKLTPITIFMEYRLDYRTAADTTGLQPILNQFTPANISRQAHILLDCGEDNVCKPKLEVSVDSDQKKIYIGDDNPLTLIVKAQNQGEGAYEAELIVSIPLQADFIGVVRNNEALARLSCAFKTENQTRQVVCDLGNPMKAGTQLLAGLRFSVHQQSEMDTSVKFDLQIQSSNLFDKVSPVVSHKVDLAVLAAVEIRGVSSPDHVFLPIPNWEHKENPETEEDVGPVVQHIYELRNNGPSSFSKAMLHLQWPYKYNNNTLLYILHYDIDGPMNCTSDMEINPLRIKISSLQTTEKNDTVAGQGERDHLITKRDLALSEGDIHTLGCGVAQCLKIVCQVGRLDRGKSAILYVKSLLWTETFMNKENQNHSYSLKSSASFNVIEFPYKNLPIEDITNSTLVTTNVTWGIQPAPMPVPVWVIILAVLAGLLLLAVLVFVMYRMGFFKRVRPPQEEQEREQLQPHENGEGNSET
T2 sequence (P05106 27-788, chain 2 of 2): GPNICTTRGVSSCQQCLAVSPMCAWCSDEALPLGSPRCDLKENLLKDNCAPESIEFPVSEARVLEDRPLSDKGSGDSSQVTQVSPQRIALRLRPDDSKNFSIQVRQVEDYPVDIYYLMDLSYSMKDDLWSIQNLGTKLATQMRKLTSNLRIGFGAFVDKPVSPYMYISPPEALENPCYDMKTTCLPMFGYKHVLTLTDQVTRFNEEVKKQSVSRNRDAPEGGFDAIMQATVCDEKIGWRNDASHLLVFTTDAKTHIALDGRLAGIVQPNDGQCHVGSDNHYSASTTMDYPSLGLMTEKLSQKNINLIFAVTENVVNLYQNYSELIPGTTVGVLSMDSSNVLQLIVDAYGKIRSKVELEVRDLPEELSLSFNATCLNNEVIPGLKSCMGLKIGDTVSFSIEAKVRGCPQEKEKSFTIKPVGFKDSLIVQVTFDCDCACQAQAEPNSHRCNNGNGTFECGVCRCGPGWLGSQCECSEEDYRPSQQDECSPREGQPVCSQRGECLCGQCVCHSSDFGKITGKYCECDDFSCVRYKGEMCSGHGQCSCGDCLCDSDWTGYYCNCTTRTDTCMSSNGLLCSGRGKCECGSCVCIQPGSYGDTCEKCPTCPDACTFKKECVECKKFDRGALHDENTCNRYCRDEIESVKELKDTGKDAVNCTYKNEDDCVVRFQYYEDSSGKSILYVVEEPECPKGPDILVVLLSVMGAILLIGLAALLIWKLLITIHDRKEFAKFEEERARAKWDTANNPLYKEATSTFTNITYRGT
Description: The best-fit 50% inhibitory concentration (IC₅₀) values were calculated by fitting the data with nonlinear regression using GraphPad Prism (GraphPad Software). Experiments were performed twice with triplicate samples.

[3] = molecular target: T2, integrin αvβ3; assay: competitive displacement of ^125I-echistatin on U87MG cells
Description: (§1) The best-fit 50% inhibitory concentration (IC₅₀) values were calculated by fitting the data with nonlinear regression using Graph-Pad Prism (GraphPad Software, Inc.). Experiments were performed with triplicate samples.

[4] = molecular target: T1, gastrin-releasing peptide receptor …; assay: displacement of ^125I-[Tyr^4]BBN from 10^5 PC-3 cells
Description: as §1

[5] = molecular target: T1, gastrin-releasing peptide receptor …; assay: competitive binding with 125I-[Tyr4]BBN on PC-3 cells; determined with NOTA-RGD-BBN
[6] = molecular target: T2, integrin αvβ3; assay: competitive binding with 125I-c(RGDyK) on U87MG cells
[7] = molecular target: T1, gastrin-releasing peptide receptor …; assay: competitive binding with 125I-[Tyr4]BBN on PC-3 cells
[8] = molecular target: T1, gastrin-releasing peptide receptor …; assay: displacement of ^125I-[Tyr^4]BBN from PC-3 cells; determined with FB-PEG3-RGD-BBN

T1 sequence (P30550 whole entry): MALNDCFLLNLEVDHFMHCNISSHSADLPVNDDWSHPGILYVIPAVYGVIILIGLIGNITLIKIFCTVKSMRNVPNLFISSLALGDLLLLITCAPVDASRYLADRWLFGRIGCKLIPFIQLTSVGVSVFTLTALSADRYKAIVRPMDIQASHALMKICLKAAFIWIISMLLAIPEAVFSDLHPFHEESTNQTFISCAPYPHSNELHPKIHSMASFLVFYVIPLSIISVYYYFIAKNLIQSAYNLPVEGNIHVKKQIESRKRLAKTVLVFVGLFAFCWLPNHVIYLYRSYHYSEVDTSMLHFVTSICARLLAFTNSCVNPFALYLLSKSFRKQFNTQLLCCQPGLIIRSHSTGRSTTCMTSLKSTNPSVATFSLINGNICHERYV

B1: RGD-BBN, cyclo(Arg-Gly-Asp-D-Tyr-Lys)-Glu-(Aca-Gln-Trp-Ala-Val-Gly-His-Leu-Met-NH2) (peptide)
peptide 1: RGDYK
peptide 2: EQWAVGHLM
modifications: free amino group on Glu; Glu side-chain carboxylate joined to Aca; Aca between Glu and Gln; C-terminal amide (Met-NH2); cyclic (cyclo); D-Tyr at position 4; Lys side chain ε-amine joined to the α-carboxylate of Glu
notes: also called Glu-RGD-BBN; RGD-bombesin
IC50 [1]: 67.9 nM
IC50 [2]: 17.9 nM

B2: NH2-Glu-BBN(7-14)-c(RGDyK) (BBN-RGD) (peptide)
peptide 1: RGDYK
peptide 2: EQWAVGHLM
modifications: free amino group on Glu; Aca between Glu and Gln; C-terminal amide (Met-NH2); cyclic (cyclo); D-Tyr at position 4; Lys joined to one carboxylate of the Glu linker
notes: also called heterodimer BBN-RGD; BBN-RGD heterodimeric construct
IC50 [3]: 428 nM
IC50 [4]: 35.7 nM

B3: NOTA-RGD-BBN (VII) (peptide)
peptide 1: RGDYK
peptide 2: EQWAVGHLM
modifications: NOTA (from p-SCN-Bn-NOTA, SCN-amine reaction) on the amine of RGD-BBN; Aca between Glu and Gln; C-terminal amide (Met-NH2); cyclic (cyclo); D-Tyr at position 4; Lys side chain joined to the Glu …
notes: also called NOTA-RGD-bombesin; ^64Cu-NOTA-RGD-BBN
IC50 [5]: 92.8 nM
IC50 [1]: 55.9 nM

B4: DOTA-RGD-BBN (VIII) (peptide)
peptide 1: RGDYK
peptide 2: EQWAVGHLM
modifications: not fully specified; DOTA (from DOTA-OSSu) on the amine of RGD-bombesin; Aca between Glu and Gln; C-terminal amide (Met-NH2); cyclic (cyclo); D-Tyr at position 4; Lys side chain joined to the Glu linker
notes: also called DOTA-RGD-bombesin; ^64Cu-DOTA-RGD-BBN
IC50 [6]: 21.6 nM
IC50 [7]: 85.8 nM

B5: FB-NH-Glu-BBN(7-14)-c(RGDyK) (FB-BBN-RGD) (peptide)
peptide 1: RGDYK
peptide 2: EQWAVGHLM
modifications: 4-fluorobenzoyl (FB) on the Glu amino group; Aca between Glu and Gln; C-terminal amide (Met-NH2); cyclic (cyclo); D-Tyr at position 4; Lys joined to one carboxylate of the Glu linker
notes: non-radioactive FB form used in the IC50 assays; also called ^18F-FB-BBN-RGD
IC50 [3]: 282 nM
IC50 [4]: 32 nM

B6: PEG3-Glu-RGD-BBN (peptide)
peptide 1: RGDYK
peptide 2: EQWAVGHLM
modifications: not fully specified; PEG3 (11-amino-3,6,9-trioxaundecanoic acid) on the Glu amino group; Glu γ-carboxylate joined to Aca; Aca between Glu and Gln; C-terminal amide (Met-NH2); cyclic (cyclo); D-Tyr at position 4; Lys side chain ε-amine joined to the α-carboxylate of Glu
notes: also called PEG3-RGD-BBN
IC50 [1]: 85.5 nM

B7: FB-PEG3-Glu-RGD-BBN (peptide)
peptide 1: RGDYK
peptide 2: EQWAVGHLM
modifications: 4-fluorobenzoyl (FB) on the amino group of the PEG3 spacer (11-amino-3,6,9-trioxaundecanoic acid), PEG3 on the Glu amino group; Glu γ-carboxylate joined to Aca; Aca between Glu and Gln; C-terminal amide (Met-NH2); cyclic (cyclo); D-Tyr at position 4; Lys side chain ε-amine joined to the α-carboxylate of Glu
notes: also called FB-PEG3-RGD-BBN; ^18F-FB-PEG3-Glu-RGD-BBN
IC50 [8]: 73.3 nM

Aca-QWAVGHLM-NH2 (also called BBN monomer; cold BBN) [Aca-BBN(7-14), Aca-Gln-Trp-Ala-Val-Gly-His-Leu-Met-NH2]
binding result [2]: no binding

Source: patent US20100015058A1 (STANFORD UNIVERSITY, published 2010)
